Data: patent US9610329B2 (Albireo Pharma, Inc., priority 2009, dated 2017)
Like-named read-outs stand apart in the source and are kept apart here.

Assays:
[1] = Accelerated stability study at 37° C., BIOD 901 compared to Lilly glucagon (Example 3); format: physicochemical; conditions: in solution at pH 4
[2] = cited from earlier work
[3] = cited from earlier work; remark: listed apart in the source

Substance: glucagon
- time to gel [1]: ≤ 2 days
- gel formation ([2]; acidic aqueous conditions (pH 3-4)): forms a gel
- precipitation ([2]; neutral aqueous solution): precipitates within an hour of preparation
- solubility in aqueous solutions ([2]; pH less than 3 or greater than 9): soluble
- solubility in aqueous solutions ([2]; pH range of 4 to 8): low solubility
- onset of action post injection [3]: 5 to 20 min
